{
  "source": "patent US20190263918A1",
  "about": "(SHANGHAI JIAO TONG UNIVERSITY SCHOOL OF MEDICINE, published 2019)",
  "binders": {"B1": {"name": "Anti-hCD40-hIgG1 (antibody)", "heavy": "not shown", "light": "DIQMTQSPSSVSASVGDRVTITCRASQGIYSWLAWYQQKPGKAPNLLIYTASTLQSGVPSRFSGSGSGTDFTLTISSLQPEDFATYYCQQANIFPLTFGGGTKVEIKRTVAAPSVFIFPPSDEQLKSGTASVVCLLNNFYPREAKVQWKVDNALQSGNSQESVTEQDSKDSTYSLSSTLTLSKADYEKHKVYACEVTHQGLSSPVTKSFNRGEC", "notes": "Human anti-human CD40 antibody with the light chain and VH of CP-870893; heavy chain constant region G1"}, "B2": {"name": "Anti-hCD40-hIgG3 (antibody)", "heavy": "not shown", "light": "B1 light", "notes": "Human anti-human CD40 antibody, heavy chain constant region G3"}, "B3": {"name": "Anti-hCD40-hIgG2-NA (antibody)", "heavy": "not shown", "light": "B1 light", "notes": "Human anti-human CD40 antibody, heavy chain constant region G2-NA (N297A)"}, "B4": {"name": "Anti-mCD40-hIgG1(V11) (antibody)", "heavy": "EVQLVESDGGLVQPGRSLKLPCAASGFTFSDYYMAWVRQAPTKGLEWVASISYDGSSTYYRDSVKGRFTISRDNAKSTLYLQMDSLRSEDTATYYCGRHSSYFDYWGQGVMVTVSSATTKGPSVFPLAPSSKSTSGGTAALGCLVKDYFPEPVTVSWNSGALTSGVHTFPAVLQSSGLYSLSSVVTVPSSSLGTQTYICNVNHKPSNTKVDKRVEPKSCDKTHTCPPCPAPELLGDDSVFLFPPKPKDTLMISRTPEVTCVVVDVSDEDGEVKFNWYVDGVEVHNAKTKPREEQYNSTYRVVSVLTVLHQDWLNGKEYKCKVSNKALPRPIEKTISKAKGQPREPQVYTLPPSRDELTKNQVSLTCLVKGFYPSDIAVEWESNGQPENNYKTTPPVLDSDGSFFLYSKLTVDKSRWQQGNVFSCSVMHEALHNHYTQKSLSLSPGK", "light": "DTVLTQSPALAVSPGERVTISCRASDSVSTLMHWYQQKPGQQPKLLIYLASHLESGVPARFSGSGSGTDFTLTIDPVEADDTATYYCQQSWNDPWTFGGGTKLELKRTVAAPSVFIFPPSDEQLKSGTASVVCLLNNFYPREAKVQWKVDNALQSGNSQESVTEQDSKDSTYSLSSTLTLSKADYEKHKVYACEVTHQGLSSPVTKSFNRGEC", "notes": "Chimeric anti-murine CD40 antibody, heavy chain constant region V11(H1)"}, "B5": {"name": "Anti-mCD40-hIgG2(V11) (antibody)", "heavy": "EVQLVESDGGLVQPGRSLKLPCAASGFTFSDYYMAWVRQAPTKGLEWVASISYDGSSTYYRDSVKGRFTISRDNAKSTLYLQMDSLRSEDTATYYCGRHSSYFDYWGQGVMVTVSSASTKGPSVFPLAPCSRSTSESTAALGCLVKDYFPEPVTVSWNSGALTSGVHTFPAVLQSSGLYSLSSVVTVPSSNFGTQTYTCNVDHKPSNTKVDKTVERKCCVECPPCPAPELLGDDSVFLFPPKPKDTLMISRTPEVTCVVVDVSDEDGEVKFNWYVDGVEVHNAKTKPREEQYNSTYRVVSVLTVLHQDWLNGKEYKCKVSNKALPRPIEKTISKAKGQPREPQVYTLPPSRDELTKNQVSLTCLVKGFYPSDIAVEWESNGQPENNYKTTPPVLDSDGSFFLYSKLTVDKSRWQQGNVFSCSVMHEALHNHYTQKSLSLSPGK", "light": "B4 light", "notes": "Chimeric anti-murine CD40 antibody, heavy chain constant region V11(H2), i.e. JAC1; also called anti-murine CD40 antibody comprising JAC1"}, "B6": {"name": "Fc fragment of heavy chain constant region G1-GASDALIE (hIgG1 G236A/S239D/A330L/I332E) (other)", "chain": "PELLAGPDVFLFPPKPKDTLMISRTPEVTCVVVDVSHEDPEVKFNWYVDGVEVHNAKTKPREEQYNSTYRVVSVLTVLHQDWLNGKEYKCKVSNKALPLPEEKTISKAKGQPREPQVYTLPPSRDELTKNQVSLTCLVKGFYPSDIAVEWESNGQPENNYKTTPPVLDSDGSFFLYSKLTVDKSRWQQGNVFSCSVMHEALHNHYTQKSLSLSPGK"}, "B7": {"name": "human FcγRIIB extracellular domain protein (receptor, UniProt P31994 43-217, looked up)", "chain": "TPAAPPKAVLKLEPQWINVLQEDSVTLTCRGTHSPESDSIQWFHNGNLIPTHTQPSYRFKANNNDSGEYTCQTGQTSLSDPVHLTVLSEWLVLQTPHLEFQEGETIVLRCHSWKDKPLVKVTFFQNGKSKKFSRSDPNFSIPQANHSHSGDYHCTGNIGYTLYSSKPVTITVQAP", "notes": "extracellular domain; SPR: His-tagged, immobilised; ELISA: biotinylated; also called hFcγRIIB; CD32b"}, "B8": {"name": "human FcγRIIA-R131 extracellular domain protein (receptor, UniProt P12318 34-217, looked up)", "chain": "QAAAPPKAVLKLEPPWINVLQEDSVTLTCQGARSPESDSIQWFHNGNLIPTHTQPSYRFKANNNDSGEYTCQTGQTSLSDPVHLTVLSEWLVLQTPHLEFQEGETIMLRCHSWKDKPLVKVTFFQNGKSQKFSRLDPTFSIPQANHSHSGDYHCTGNIGYTLFSSKPVTITVQVPSMGSSSPMG", "notes": "extracellular domain; SPR: His-tagged, immobilised; ELISA: biotinylated; also called hFcγRIIA-R131; CD32a"}},
  "key": {"[1]": {"biological_target": "B8", "assay": "ELISA: plate coated with the anti-human CD40 antibody, biotinylated human FcγRIIA-R131 extracellular domain, streptavidin-HRP, A650 [FcγRIIA-R131 panels]", "procedure": "The ELISA plate was coated with 100 μL antibody at an appropriate concentration overnight, supernatant being discarded. The plate was blocked with 1% BSA in PBS for 2 hours, followed by washing with PBST (PBS with 0.05% Tween 20). Then, biotinylated FcγR extracellular domain protein (Sino Biologic Inc., Beijing China) at a concentration as appropriate was added and incubated at room temperature for 1 hour, supernatant being discarded, followed by PBST wash. Streptavidin-HRP (BD Biosciences) was added and incubated at room temperature for 1 hour for detection of biotin protein. After removal of supernatant, developing solution was added to react for 20-40 minutes, and absorbance was determined at 650 nm (A650)."}, "[2]": {"biological_target": "T1, recombinant human CD40 protein (human, UniProt P25942 21-193)", "T1 construct": "Bought; coated on the ELISA plate; also called hCD40", "T1 sequence (P25942 21-193 limits assumed)": "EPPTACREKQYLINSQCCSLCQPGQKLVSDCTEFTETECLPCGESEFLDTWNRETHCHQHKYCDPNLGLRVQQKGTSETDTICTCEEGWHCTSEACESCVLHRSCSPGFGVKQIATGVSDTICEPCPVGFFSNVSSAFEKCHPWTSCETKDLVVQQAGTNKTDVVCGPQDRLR", "assay": "ELISA: plate coated with recombinant human CD40, antibody in gradient dilutions, biotinylated anti-human Igκ light chain secondary antibody, SAV-HRP, A650", "procedure": "(§1) For assay on anti-human CD40 antibodies, an ELISA plate was coated with recombinant human CD40 protein (Novoprotein Scientific Inc.) overnight at atmospheric temperature, blocked using 1% BSA at room temperature for 2 h, and then washed three times with PBST (0.05% Tween 20 in PBS). To each well was added […] gradient dilutions of the human agonistic CD40 antibody. The plate was incubated at room temperature for 1 h and washed four times with PBST. Then, 100 ng/ml biotinylated secondary antibody against human Igκ light chain was added, incubated at room temperature for 1 h and washed 4 times with PBST. SAV-HRP at an appropriate concentration was added, incubated at room temperature for 1 h. Then, chromogenic substrate was added to react for 5 minutes, and optical absorbance was determined at 650 nm."}, "[3]": {"biological_target": "T2, recombinant murine CD40 protein (murine, UniProt P27512 24-193, limits assumed)", "T2 construct": "Bought; coated on the ELISA plate; also called mouse CD40; mCD40", "T2 sequence (looked up)": "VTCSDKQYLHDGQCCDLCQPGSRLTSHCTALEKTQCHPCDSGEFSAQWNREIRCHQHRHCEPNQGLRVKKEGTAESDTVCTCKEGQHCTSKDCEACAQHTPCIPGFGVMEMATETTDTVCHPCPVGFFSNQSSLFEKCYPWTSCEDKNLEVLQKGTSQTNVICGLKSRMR", "assay": "ELISA: plate coated with recombinant murine CD40, antibody in gradient dilutions, HRP-labelled goat anti-human IgG-Fc secondary antibody, A650", "procedure": "as §1\nFor assay on anti-murine CD40 antibodies, the process was the same, expect that the plate was coated with recombinant murine CD40 protein (Novoprotein Scientific Inc.) and HRP-labeled goat anti-human IgG-Fc antibody was used as the secondary antibody."}, "[4]": {"biological_target": "B8", "assay": "SPR, Biacore T100, FcγR extracellular domain immobilised, 1:1 model"}, "[5]": {"biological_target": "B7", "assay": "SPR, Biacore T100, FcγR extracellular domain immobilised, 1:1 model"}, "[6]": {"biological_target": "Fc fragment of heavy chain constant region G1 (hIgG1) (human, UniProt P0DOX5 234-449 = IgG part)", "assay": "SPR, Biacore T100, FcγR extracellular domain immobilised, 1:1 model"}},
  "data": [
    {"binder": "B1", "values": [
      {"measurement": "binding result", "setting": "[1]", "result": "binds"},
      {"measurement": "EC50 (read off the curve)", "setting": "[2]", "result": "~0.2", "unit": "µg/mL"}
    ]},
    {"binder": "B2", "values": [
      {"measurement": "EC50 (read off the curve)", "setting": "[2]", "result": "~0.1", "unit": "µg/mL"}
    ]},
    {"binder": "B3", "values": [
      {"measurement": "binding result", "setting": "[1]", "result": "no binding"}
    ]},
    {"binder": "B4", "values": [
      {"measurement": "EC50 (read off the curve)", "setting": "[3]", "result": "~0.1", "unit": "µg/mL"}
    ]},
    {"binder": "B5", "values": [
      {"measurement": "EC50 (read off the curve)", "setting": "[3]", "result": "~0.1", "unit": "µg/mL"}
    ]},
    {"binder": "B6", "values": [
      {"measurement": "Kd", "setting": "[4]", "result": 63, "unit": "nM"},
      {"measurement": "Kd", "setting": "[5]", "result": 740, "unit": "nM"}
    ]},
    {"binder": "B7", "values": [
      {"measurement": "Kd", "setting": "[6]", "result": 3000, "unit": "nM"}
    ]},
    {"binder": "B8", "values": [
      {"measurement": "Kd", "setting": "[6]", "result": 1200, "unit": "nM"}
    ]}
  ]
}
